± gives the uncertainty stated by the source.
Assay: amyloid nucleation score (Sup35N fusion, yeast selection) (log enrichment); library NNK2; higher = more nucleation; inactive = no reads after selection
Procedure, shortened: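 Psi-negative yeast expressed Sup35N fused to peptides of 20 random codons. They were induced 24 hours with 100 μM copper sulfate, grown 7 days at 30°C without adenine and uracil, and their plasmid inserts from input and output were Illumina-sequenced. The nucleation score is the DiMSum log enrichment of output over input reads, centred on the mode score of non-aggregating sequences. Sequences with under 100 input reads were excluded.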

Substance | amyloid nucleation score
ANTCVPPLLRMFPLRGRTHI | -0.184 ± 1.1
NNCNSSSSFIIPVAFTSVIN | -1.67 ± 0.61
RRLKLRINMVFLEYGFKSKF | 3.8 ± 0.046
FWYFPDIIWG | inactive
PNTSKGGDGYSTWGTSQASS | 0.03 ± 0.46
LLNSCSTVESWCNLGEMDKY | 0.122 ± 1.1
HARVKLVIILLTLREGGMFW | -0.108 ± 0.62
FASFVSIGRVVLLYSPSCYQ | 5.71 ± 0.059
GYYYLFFILG | 4.78 ± 0.075
LALFALMLLLF | -0.055 ± 0.26
WVGSCKNVSFMQVIVWIVRL | -0.121 ± 1.1
VRATCWS | -0.418 ± 0.55
RFEFIVMSLW | 3.19 ± 0.06
RILFRGHSVLKNWF | -1.86 ± 0.49
RSMDPCRLLSELIRRT | 0.938 ± 0.32
CIFWLDYATFDTGLSLYMCE | -0.094 ± 1
LLYQKKDEWLGASYSLQKLS | -0.686 ± 0.37
CTEGQLN | 0.002 ± 0.55
DVIYNERTYLLFLTPHTMVV | -0.991 ± 0.63
SSSDFEFSHVIKGAIFRLFT | -1.2 ± 1
KILRVKRQGRGSRNR | -0.055 ± 0.55
RFCAMTYERLCVFVIF | 0.197 ± 0.4

Substance | amyloid nucleation score
WSLSYYISVDEDYGSRGVTM | -1.6 ± 1
DIFLM | 0.487 ± 0.15
GHNTYGYQRMRGCDV | 1.3 ± 0.38
VNTTDKWKVSEYKYQND | 0.254 ± 0.19
PFACYGFCRM | -1.29 ± 0.76
DSSKSMCLICSNCILNFSEM | 8.698 ± 0.049
YVFYLVR | 1.03 ± 0.24
SYNDWGFMKVGCL | -0.686 ± 0.39
RTIYFFLSWHFGSFIKFLKL | inactive
GDGHLVILLSHFTPWSLNTG | -0.209 ± 0.48
IYMGISVCSICYV | 6.34 ± 0.071
DKTVIPLCFLHFNRT | -1.35 ± 0.78
LQRRCLINKNTGTPRLSN | -0.358 ± 1
RRIGFDAPDVSRYVALLYWD | -0.106 ± 0.32
WVNSKLGLKVSLIEAGVEVS | -0.116 ± 0.43
VVHSFEWNLRRLSTWWRWGF | 0.217 ± 0.31
GCVLAQLSSVGSGVLML | 3.14 ± 0.16
NRYVFLGHCVPVRGATHFLV | 0.173 ± 1.1
EDGGLCSASVRLYG | 0.379 ± 0.33
RWYRRCLYT | 0.162 ± 0.37
DSDHFA | -1.58 ± 0.78
VGDQF | inactive

Substance | amyloid nucleation score
LSVFVSGAPQIKLSNMVVKN | -0.348 ± 0.76
NFWMVPLIA | -0.541 ± 0.79
VDIFMFKAAHIRAKGNVVGL | -0.429 ± 0.45
FWHIEMCENSTYHVSLSTGC | 4.394 ± 0.04
CPFESRIAST | 0.132 ± 0.26
TGALHWVNAYVLFRKVCKGM | 0.297 ± 0.26
YLASFVFGIVNTYSAVALS | 0.552 ± 0.66
CSLLGNFYILGYWATFMASD | -1.57 ± 0.53
LNYMLSAPYFPYESEWSSKG | -0.59 ± 1.1
LVLRRWMSVRYFMGLTMKVR | inactive
TVRVST | -0.004 ± 0.36
SIGTGRAESL | 0.359 ± 0.57
MFHCSSKACLPVVDVGVVVC | 0.96 ± 0.29
VWFFGSYHVCWDCTF | 0.378 ± 0.74
LWVVILGVGTSSNESYCKYV | -0.427 ± 0.45
CNRLVVLSSCNWYRDVADSL | 0.115 ± 1
YLARASYS | 0.258 ± 0.18
EVHLEVLTNCKKV | 5.05 ± 0.051
SVLQAYFRTWSQWIRYTCAG | -0.141 ± 0.31
FYLYNFMCEVLYMESRRVMS | inactive
MRLLILDPYAREQ | inactive
ISPEYVSTALLTECTWRVLR | 0.215 ± 0.46

Substance | amyloid nucleation score
KAHIAVDGIMA | 0.117 ± 0.33
FTDRDLGNLTYDDRFDICNY | -1.75 ± 0.76
GFPVWNVYLKSNGHVCDGLG | 1.31 ± 0.15
LRRTSVVIGRVRSSRLCGLR | 9.336 ± 0.054
KITAGSGVL | 0.904 ± 0.81
SKFHIVIWSSAFFGCNCRLA | 6.78 ± 0.079
SPCLVLL | 0.2 ± 0.28
TLCRAGLNGPWLNVLRFVPR | 0.615 ± 0.36
NVLGSRLKLMNEGIDLALIK | 6.38 ± 0.069
TARLLSPQ | -0.376 ± 0.76
NNVANW | 0.569 ± 0.48
YFLLVGAARIRRVKLLQ | -0.22 ± 0.62
LDRDVVYTCVDCVFGVGILK | -1.19 ± 0.75
FIERILAVSCFAYFVKPSTV | 5.44 ± 0.042
FIELMCWRSH | -0.315 ± 0.45
GDVQLRGMHESPYSPPSQGR | -0.127 ± 0.49
DFCCWCPFCYVSWYEGIVMI | 0.305 ± 1
KEPYHNYI | 0.179 ± 0.56
MGLNYLKQQAARYDEGGPS | 1.5 ± 0.42
VGTISVFIIFHASHVGILHS | -1.65 ± 0.53

Reference: the supplement of paper PMC12042874
